Patent US20190359693A1 (Janssen / Centocor, published 2019)
Where two headings read alike, the source gives them in different places.

Assays:
HA of H3N2 A/HK/1/68-MA [1] = target: HA of H3N2 A/HK/1/68-MA (influenza A virus); experiment: cell-based or functional assay
HA of H7N9 A/Anhui/1/13 = HA of H7N9 A/Anhui/1/13 (influenza A virus); experiment: cell-based or functional assay
[2] = target: HA of H1N1 A/Puerto Rico/8/34-MA (influenza A virus); experiment: cell-based or functional assay
[3] = target: HA of H5N1 A/PR8 H5N1 HK97 (influenza A virus); experiment: cell-based or functional assay
HA of H3N2 A/HK/1/68-MA [4] = target: HA of H3N2 A/HK/1/68-MA (influenza A virus); experiment: cell-based or functional assay; remark: listed apart in the source
HA of H3N2 A/HK/1/68 [5] = target: T1, HA of H3N2 A/HK/1/68 (influenza A virus, UniProt Q91MA7 17-530); experiment: cell-based or functional assay
[6] = target: HA of H3N2 A/Wisconsin/67/2005 (influenza A virus); experiment: cell-based or functional assay
[7] = target: HA of H3N2 A/Panama/2007/99 (influenza A virus); experiment: cell-based or functional assay
[8] = target: HA of H4 A/WF/HK/MPA892/06 (influenza A virus); experiment: cell-based or functional assay
HA of H7N7 A/PR8 H7N7-NY [9] = target: HA of H7N7 A/PR8 H7N7-NY (influenza A virus); experiment: cell-based or functional assay
[10] = target: HA of H10N7 A/Chick/Germany/N/49 (influenza A virus); experiment: cell-based or functional assay
HA of H3N2 A/HK/1/68 [11] = target: T1, HA of H3N2 A/HK/1/68; experiment: BLI (Octet)
[12] = target: HA of H2N2 A/Guiyang/1/57 (influenza A virus); experiment: cell-based or functional assay
[13] = target: HA of H2N2 A/WF/HK/MPU3156/05 (influenza A virus); experiment: cell-based or functional assay
[14] = target: HA of H4 A/WF/HK/MPA892/06 (influenza A virus); experiment: cell-based or functional assay; remark: listed apart in the source
[15] = target: HA of H10N7 A/Chick/Germany/N/49 (influenza A virus); experiment: cell-based or functional assay; remark: listed apart in the source
[16] = target: hemagglutinin (HA) of influenza virus H3N2 A/Wisconsin/67/05 (influenza A virus); experiment: cell-based or functional assay
[17] = target: hemagglutinin (HA) of influenza virus H1N1 A/California/07/09 (influenza A virus); experiment: cell-based or functional assay
[18] = target: hemagglutinin (HA) of influenza virus H1N1 A/Puerto Rico/8/34-MA (influenza A virus); experiment: cell-based or functional assay
[19] = target: hemagglutinin (HA) of influenza virus H5N1 A/Vietnam/1194/04 (influenza A virus); experiment: cell-based or functional assay
[20] = target: recombinant HA of H1N1 A/New Caledonia/20/1999 (influenza A virus, UniProt Q289M7 18-565); experiment: biolayer interferometry (Octet), steady-state fit, geometric mean
HA of H3N2 A/HK/1/68 [21] = target: T1, HA of H3N2 A/HK/1/68; experiment: cell-based or functional assay; remark: listed apart in the source
[22] = target: HA of H4 A/WF/HK/MPA892/06 (influenza A virus); experiment: cell-based or functional assay; remark: listed apart in the source
HA of H7N7 A/PR8 H7N7-NY [23] = target: HA of H7N7 A/PR8 H7N7-NY (influenza A virus); experiment: cell-based or functional assay; remark: listed apart in the source
[24] = target: HA of H10N7 A/Chick/Germany/N/49 (influenza A virus); experiment: cell-based or functional assay; remark: listed apart in the source
[25] = target: HA of B/Malaysia/2506/04 (Victoria) (influenza B virus); experiment: cell-based or functional assay
[26] = target: HA of B/Harbin/7/94 (Yamagata) (influenza B virus); experiment: cell-based or functional assay
HA of B/Lee/40 [27] = target: T2, HA of B/Lee/40 (influenza B virus, UniProt P03460 16-552); experiment: cell-based or functional assay
[28] = target: HA of B/Harbin/7/94 (Yamagata) (influenza B virus); experiment: cell-based or functional assay; remark: listed apart in the source
[29] = target: HA of H5N1 A/Vietnam/1194/04 (influenza A virus); experiment: cell-based or functional assay
HA of B/Lee/40 [30] = target: T2, HA of B/Lee/40; experiment: cell-based or functional assay; remark: listed apart in the source
[31] = target: HA of H7N7 A/Netherlands/219/2003 (influenza A virus, UniProt P36346 19-563); experiment: AlphaLISA competition vs CR9114
[32] = target: HA of H1N1 A/Brisbane/59/07 (influenza A virus); experiment: cell-based or functional assay
[33] = target: HA of H5N1 A/Vietnam/1194/04 (influenza A virus); experiment: cell-based or functional assay; remark: listed apart in the source
[34] = target: HA of H3N2 A/Brisbane/10/2007 (influenza A virus); experiment: cell-based or functional assay
[35] = target: HA of H3N2 A/Panama/2007/99 (influenza A virus); experiment: cell-based or functional assay; remark: listed apart in the source
HA of H7N7 A/PR8 H7N7-NY [36] = target: HA of H7N7 A/PR8 H7N7-NY (influenza A virus); experiment: cell-based or functional assay; remark: listed apart in the source

B1: SD1034 (VHH)
VHH: EVQLVESGGGLVQAGGSLRLSCAASGTIFGIRVNTMGWYRQAPGEQRELVATITRSGGTNYADSVKDRFTISGDFAKDTVYLQMMHLKPEDTAVYYCNGRWALTDYWGQGTQVTVSS
HA of H3N2 A/HK/1/68-MA [1]
  VNA titer: > 1000 nM

B2: SD1046 (VHH)
VHH: EVQLVESGGGLVQAGDSLRISCAASGRTLSIYSMGWFRQAPGKEREFVATIGWNSGRTFYPDSLKGRFTISRDNARNTLYLQMNNLRPEDTAVYYCAAAKGPLRLSSQADYWGQGTQVTVSS
HA of H7N9 A/Anhui/1/13
  VNA titer: 46.1 nM
[2]
  VNA titer: > 1000 nM
[3]
  VNA titer: > 1000 nM
HA of H3N2 A/HK/1/68-MA [4]
  VNA titer: 26.4 nM
HA of H3N2 A/HK/1/68 [5]
  VNA titer: 202 nM
[6]
  VNA titer: > 1000 nM
[7]
  VNA titer: > 1000 nM
[8]
  VNA titer: 34.3 nM
HA of H7N7 A/PR8 H7N7-NY [9]
  VNA titer: 25.9 nM
[10]
  VNA titer: 34.3 nM

B3: SD1076 (VHH)
VHH: EVQLVESGGGLVQAGGSLTLSCAGSGFAFSIATMGWYRQAPGKQRELVADITSGGSTNYADSVKGRFTISRDNAKNTVYLQMNSLKPEDTAVYYCNADSLATGWRQYSYWGKGTQVTVSS
notes: llama sdAb
HA of H3N2 A/HK/1/68 [11]
  binding result: no binding (tested: HA 20 µg/mL)
HA of H3N2 A/HK/1/68-MA [1]
  VNA titer: > 1000 nM
[12]
  VNA titer: > 1000 nM
[13]
  VNA titer: 38.5 nM
[14]
  VNA titer: > 1000 nM
[15]
  VNA titer: > 1000 nM

B4: MD1211 (bispecific antibody)
chain: EVQLVESGGGLVQPGGSLRLSCAVSISIFDIYAMDWYRQAPGKQRDLVATSFRDGSTNYADSVKGRFTISRDNAKNTLYLQMNSLKPEDTAVYLCHVSLYRDPLGVAGGMGVYWGKGALVTVSSAAAGGGGSGGGGSGGGGSGGGGSGGGGSGGGGSGGGGSEVQLVESGGGLVQAGGSLKLSCAASGRTYAMGWFRQAPGKEREFVAHINALGTRTYYSDSVKGRFTISRDNAKNTEYLEMNNLKPEDTAVYYCTAQGQWRAAPVAVAAEYEFWGQGTQVTVSS
[16]
  neutralization titer: 19.3 nM
[17]
  neutralization titer: 4 nM
[18]
  neutralization titer: 9.9 nM
[19]
  neutralization titer: 7.6 nM
[20]
  Kd: 1.7 nM

B5: SD1048 (VHH)
VHH: EVQLVESGGGVVQPGGSLRLSCVASGRTSSMYSIGWFRQAPGKEREFVAVIGWYSGRTFYTDSMKGRFTISRDNARNTVYLQMNSLKPEDTAVYYCAAANGPLRLSNQADYWGQGTQVTVSS
[2]
  VNA titer: > 1000 nM
[3]
  VNA titer: > 1000 nM
HA of H3N2 A/HK/1/68-MA [4]
  VNA titer: 110 nM
[6]
  VNA titer: > 1000 nM
[7]
  VNA titer: > 1000 nM
[8]
  VNA titer: 34.3 nM
HA of H7N7 A/PR8 H7N7-NY [9]
  VNA titer: 93 nM
[10]
  VNA titer: 34.3 nM

B6: SD1045 (VHH)
VHH: EVQLVESGGGLVQAGGSLRLSCAASGSSFSINVMGWYRQAPGKQREMVATITYGGSTNYVDSVKGRFTISRDNAKNTVYLQMNSLKPEDTAVYYCNSRLAQINYWGQGTQVTVSS
notes: llama sdAb
HA of H3N2 A/HK/1/68 [11]
  binding result: no binding (tested: HA 20 µg/mL)
HA of H3N2 A/HK/1/68 [21]
  VNA titer: > 1000 nM
[22]
  VNA titer: 492 nM
HA of H7N7 A/PR8 H7N7-NY [23]
  VNA titer: > 1000 nM
[24]
  VNA titer: 985 nM

B7: SD1083 (VHH)
VHH: EVQLVESGGGLVQPGGSLRLSCAATGFTLENKAIGWFRQTPGSEREGVLCISKSGSWTYYTDSMRGRFTISRDNAENTVYLQMDSLKPEDTAVYYCATTTAGGGLCWDGTTFSRLASSWGQGTQVTVSS
[25]
  VNA titer: 294 nM
[26]
  VNA titer: 259 nM
HA of B/Lee/40 [27]
  VNA titer: 217 nM
[28]
  hemagglutination inhibition titer: > 50 µg/mL
[29]
  hemagglutination inhibition titer: > 50 µg/mL
HA of B/Lee/40 [30]
  hemagglutination inhibition titer: > 50 µg/mL

B8: SD1014 (VHH)
VHH: EVQLVESGGGLVQAGGSLTLSCAASGRTYAMAWFRQAPGKEREFVAHINALGTRTYYSDSVKGRFTISRDNAKNTEYLQMNSLNPEDTAVYYCAAGGQWRAAPVADAAQYDFWGQGTQVTVSS
notes: llama sdAb
[2]
  VNA titer: > 1000 nM
HA of H3N2 A/HK/1/68-MA [4]
  VNA titer: > 1000 nM
[31]
  pIC50: 9.2

B9: SD1047 (VHH)
VHH: EVQLVESGGGLVQAGGSLRISCAASGRTYAMAWFRQAPGKEREFVAHINALGTRTYYSDSVKDRFTISRDNAKNTEYLQMNSLKPEDTAVYYCVAGGQWRAAPVAAAESYDFWGQGTQVTVSS
[2]
  VNA titer: > 1000 nM
HA of H3N2 A/HK/1/68-MA [4]
  VNA titer: > 1000 nM
[32]
  VNA titer: > 1000 nM

B10: SD1017 (VHH)
VHH: EVQLVESGGGLVQAGGSLRLSCAASGRTYAMAWFRQAPGKEREFVAHINALGTRAYYSDSVEGRFTISRDNAKNTGYLQMNSLEPEDTAVYVCAAGGQWRAAPVADAAQYDFWGQGTQVTVSS
[2]
  VNA titer: > 1000 nM
HA of H3N2 A/HK/1/68-MA [4]
  VNA titer: > 1000 nM
[6]
  VNA titer: > 1000 nM

B11: MD1210 (bispecific antibody)
chain: EVQLVESGGGLVQAGGSLKLSCAASGRTYAMGWFRQAPGKEREFVAHINALGTRTYYSDSVKGRFTISRDNAKNTEYLEMNNLKPEDTAVYYCTAQGQWRAAPVAVAAEYEFWGQGTQVTVSSAAAGGGGSGGGGSGGGGSGGGGSGGGGSGGGGSGGGGSEVQLVESGGGLVQPGGSLRLSCAVSISIFDIYAMDWYRQAPGKQRDLVATSFRDGSTNYADSVKGRFTISRDNAKNTLYLQMNSLKPEDTAVYLCHVSLYRDPLGVAGGMGVYWGKGALVTVSS
[16]
  neutralization titer: 118 nM
[17]
  neutralization titer: 2.5 nM
[18]
  neutralization titer: 21.9 nM
[19]
  neutralization titer: 21.4 nM
[20]
  Kd: 0.7 nM

B12: SD1087 (VHH)
VHH: EVQLVESGGGLVQPGGSLRLSCVISGLSLDTYAVGWFRQAPGKEREGITCISSGHGMTYYADSVKGRFTVSTDNAKNTVYLQMNGLQPEDTARYYCATESRYYCSDNWPAPQRYIYWGQGTQVTVSS
[25]
  VNA titer: 79.1 nM
[26]
  VNA titer: 503 nM
HA of B/Lee/40 [27]
  VNA titer: 6.5 nM
[28]
  hemagglutination inhibition titer: > 50 µg/mL
[29]
  hemagglutination inhibition titer: > 50 µg/mL
HA of B/Lee/40 [30]
  hemagglutination inhibition titer: > 50 µg/mL

B13: SD1035 (VHH)
VHH: EVQLVESGGGLVQAGGTLRLSCAASGSAVSISRMAWYRQAPGKQRELVADIFSGGGTNYADSVKGRFTISRDNAKNTVDLQMNSLKPEDTAVYYCSARSAVAAIHWDQYDYWGQGTQVTVSS
notes: llama sdAb
HA of H3N2 A/HK/1/68 [11]
  binding result: no binding (tested: HA 20 µg/mL)
[33]
  VNA titer: > 1000 nM
[34]
  VNA titer: > 1000 nM

B14: SD1016 (VHH)
VHH: EVQLVESGGGLVQAGGSLRLSCVASGMFFGIAAMGWYRQAPGKQRELVANITSDFSTNYADSVKDRFTISRDNAENTVYLQMNSLKPEDTAVYYCAADSLGTGWRHYYYWGQGTQVTVSS
notes: llama sdAb
HA of H3N2 A/HK/1/68 [11]
  binding result: no binding (tested: HA 20 µg/mL)
HA of H3N2 A/HK/1/68-MA [1]
  VNA titer: > 1000 nM
[35]
  VNA titer: > 1000 nM
[14]
  VNA titer: > 1000 nM
HA of H7N7 A/PR8 H7N7-NY [36]
  VNA titer: > 1000 nM
[15]
  VNA titer: > 1000 nM
